These results are taken from a protein production outcome set (Wang et al. 2014).

The data set can be described thus: label from the status in PepcDB records.
Take “MTDIHPREILICTIAKLLDGVRHVAVGASSPIPASGAMLLRALKQQAGETGPRISILGSVEHNFFTNGSAELFDCAGQGRIDAFFLGGGQIDGQGNINLVGTGEYPQTQVRWPGSFGSAYLYYVVPRVILFREEHTPRAMVEKVDFISAPGLSDEGVYRPGGPIALLTSKALFRFDKNRRGFELESVHPGYDLAAIKEATGFKFAHDDVPAQTALPDPQVLKLLRERVYDEVAETYPDFAAQMRREIAQPLPRAS”: the protein production entry is on record as “failed”.
Next, “MSLDMKEHPDAEVQKNQVLTLEDWKEKWVTRHISFHQEQGHQLLKKHLDTFLKGQSGLRVFFPLCGKAIEMKWFADRGHTVVGVEISEIGIREFFAEQNLSYTEEPLAEIAGAKVFKSSSGSISLYCCSIFDLPRANIGKFDRIWDRGALVAINPGDHDRYADIILSLLRKEFQYLVAVLSYDPTKHAGPPFYVPSAELKRLFGTKCSMQCLEEVDALEERHKAWGLDYLFEKLYLLTEK”: “not failed”; “MPIIELVILLACLVLLSNVLSHYLVAIPVSLIQVGLGLGVALLLNVQVKLQTDWFMLVFIAPMLYNDGREFPKQELWELRGAIFANAIVLVFITTILGGFLIHVLIPTIPLAVGIALAAILSPTDPIAVQSISEGVKLPKEILHLVSGESLINDASGLIGFKYALAAAVTGTFVLGEAVGDFFYISLVGLAVGLALITIIQLIRDVLRREGINDIVFNVVLQILTPFAIYFIAEEWFHASGVVAVVAAGVLSHLQNSHESEDAPELRLVTERVWNVVVYLLNGIVFLILGIELPAATQATIKGAHTNTFHAVFDVLIVWGILLLIRVAWTYAYMLFNWLRHHKKAKPSLRIAALSGLSGVRGAITMAGVFTIPTVVASGKAFPERALVLFIAAGVIIVSLVAAAAILPLMAAKSLPFVTRGSSPDEDDAVLAEGTDDGDDSSGQLPQLTYKQARIYILQLAIQNIEEHRRPANQRAAYDLILDQQFQIRRLEVASQTADELAPMLTDELELRLVALNGERAAVREMIANKQTSKLAGQVYLRRVDRREQRFLQATHRQGLPTLRSLRLLLTRAMQGIRLWLAPGDSEELRVALLDIQREASKAAIKALSQYLKQANVDEQQFDRQALYHLIVHYRNRIENAKNDHTLSRDDYEQQLHGLRIKSLGAERAGVQHLLESGQISLRTAAKLRQFINYSENLLMLNDIEADED”: “failed”; “MREETKCALIIDESLPLGLIANTAAILGAALGKNKPDLIGETVTDGSGIDHLGIVKIPIPILKGNAELLHQLSQKLLTDEFNDILTVDFTDVAQSIHTYEAYIEAFQSTAASDYRYFGIGICGDKKKVARLTGSLGLLRLEHHHHHH”: “not failed”.
On to “MSVLVVGGDEITPIKAVLENLGCKDITHWDGRRESINRKNIPQNTECLVLLTNFLNHNTMKKFRGEAKKRNIPVVCSKRSVSCLYCEYCKIFGEAAAKNCPLNSFELEHHHHHH”, for which the protein production entry is listed as “failed”.
The same measure for “MRKNKLSFKEKAGAEQEECLCFCEGEASREAMFQAPIELPEGFVVDPAEAVANVTWNADSLSCVSDRCLIQTGPEPDEVGVQFAVRLQGTVTLLVSVSPVRNQYGQGDGAVSVIHNAEIDQVVYYSDESDDCPDISDITIENLVVVPPFYGSPLSVTGTIVLVPEPEPVYAFTANPNDQSVSVIDTNTDTVVTTIALPYNPAGIEITPDKSAVFVLHPNNNVISVIDYDTLTVTATILLDQPPRLIRFIPNHEFAYVFTGTAVYVIGIDTLTVDRSIPVEGYDVAIDPNGLFAYVLNFGIVQKVDLTTGEVTGTIERELIVSTIETNWPERYAYVLEQEFFFNYLTVIDLNTFTISSTQELEYEGEYRMFTSGAEVYLYDGFTGNLYSVSPNGAGVIGNVPQSATDYAFTPNGDFLYATRFIEQSIIVYNTDDYSEETVISLGVSPGAITILEHHHHHH”: “not failed”; for “MPSEAKYTWDQELNEINIQFPVTGDADSSAIKIRIVGKKICVKNQGEIVIDGELLHEVDVSSLWWVINGDVVDVNVTKKRNEWWDSLLVGSESVDVQKLAENKHADMSMLDAEAREVVEKMMHNTSGKDSE”: “not failed”.
